Reference: patent US20240294650A1

Tests used:
[1] = biological target: endogenous murine MerTK on bone marrow-derived macrophages (mouse) (UniProt Q60805); test: FACS, mouse BMDM, WT minus MerTK KO
[2] = biological target: mouse MerTK overexpressed on CHO cells (mouse) (UniProt Q60805); test: FACS, CHO-muMerTK OE cells, PE-conjugated control
mouse MerTK overexpressed on CHO cells (mouse), sequence (Q60805 19-994): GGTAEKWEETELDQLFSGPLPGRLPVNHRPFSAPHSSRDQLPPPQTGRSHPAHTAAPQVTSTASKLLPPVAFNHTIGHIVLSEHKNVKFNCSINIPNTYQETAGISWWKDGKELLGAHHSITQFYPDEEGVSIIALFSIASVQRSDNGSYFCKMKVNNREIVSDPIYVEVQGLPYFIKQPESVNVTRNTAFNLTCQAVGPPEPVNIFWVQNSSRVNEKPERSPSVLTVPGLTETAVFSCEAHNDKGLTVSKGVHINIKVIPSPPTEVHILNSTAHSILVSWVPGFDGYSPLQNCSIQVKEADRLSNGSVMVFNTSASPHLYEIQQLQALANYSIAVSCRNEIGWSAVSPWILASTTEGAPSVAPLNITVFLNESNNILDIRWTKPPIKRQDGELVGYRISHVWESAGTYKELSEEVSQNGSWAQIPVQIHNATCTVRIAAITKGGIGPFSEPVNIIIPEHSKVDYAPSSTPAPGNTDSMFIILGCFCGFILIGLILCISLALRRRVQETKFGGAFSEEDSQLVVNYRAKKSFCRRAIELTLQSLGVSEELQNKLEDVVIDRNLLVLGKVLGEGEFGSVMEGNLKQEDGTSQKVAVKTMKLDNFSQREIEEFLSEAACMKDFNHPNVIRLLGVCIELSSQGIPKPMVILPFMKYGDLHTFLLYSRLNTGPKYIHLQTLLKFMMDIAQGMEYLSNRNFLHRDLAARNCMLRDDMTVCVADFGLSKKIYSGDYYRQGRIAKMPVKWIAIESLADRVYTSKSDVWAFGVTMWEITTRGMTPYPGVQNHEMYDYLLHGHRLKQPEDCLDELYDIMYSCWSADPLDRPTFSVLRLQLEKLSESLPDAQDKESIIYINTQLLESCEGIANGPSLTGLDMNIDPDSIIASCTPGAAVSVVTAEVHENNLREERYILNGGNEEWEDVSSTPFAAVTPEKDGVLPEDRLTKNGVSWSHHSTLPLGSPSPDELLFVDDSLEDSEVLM

endogenous murine MerTK on bone marrow-derived macrophages (mouse), sequence (Q60805 19-994): as above

MFI [1]: 2800 MFI
MFI [2]: 3500 MFI
Substance: rat anti-mouse MerTK monoclonal antibody DS5MMER
